Assay results taken from patent publication US20210130491A1 (ONCOTAG DIAGNOSTICS, published 2021).

T1: MRS fragment 3 (267~597 aa)
T1 construct: Expressed in H460 cells from pcDNA3; also called lane 3
T1 single chain: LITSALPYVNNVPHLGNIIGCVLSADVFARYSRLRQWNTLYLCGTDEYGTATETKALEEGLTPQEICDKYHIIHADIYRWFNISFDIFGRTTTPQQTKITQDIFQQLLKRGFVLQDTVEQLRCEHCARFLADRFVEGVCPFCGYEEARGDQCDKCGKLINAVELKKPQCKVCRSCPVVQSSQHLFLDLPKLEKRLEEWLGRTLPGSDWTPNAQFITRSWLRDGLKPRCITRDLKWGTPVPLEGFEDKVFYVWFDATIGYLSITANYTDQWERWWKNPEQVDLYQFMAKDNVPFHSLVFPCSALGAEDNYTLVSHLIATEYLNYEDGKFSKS

T2: MRS fragment 1 (1~266 aa)
T2 construct: Expressed in H460 cells from pcDNA3; also called lane 1
T2 single chain: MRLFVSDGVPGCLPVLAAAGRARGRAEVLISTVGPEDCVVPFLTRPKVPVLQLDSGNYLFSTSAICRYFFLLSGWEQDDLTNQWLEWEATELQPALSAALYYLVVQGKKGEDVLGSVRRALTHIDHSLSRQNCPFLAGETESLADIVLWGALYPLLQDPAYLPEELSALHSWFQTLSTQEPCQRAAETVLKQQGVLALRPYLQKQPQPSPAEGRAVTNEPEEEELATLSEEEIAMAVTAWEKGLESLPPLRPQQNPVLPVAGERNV

T3: MRS fragment 2 (267~417 aa)
T3 construct: Expressed in H460 cells from pcDNA3; also called lane 2
T3 single chain: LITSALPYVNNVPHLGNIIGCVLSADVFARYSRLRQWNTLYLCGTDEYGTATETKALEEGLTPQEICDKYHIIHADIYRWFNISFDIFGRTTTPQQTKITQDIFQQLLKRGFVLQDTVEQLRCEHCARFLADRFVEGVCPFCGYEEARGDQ

T4: MRS fragment 4 (1~597 aa)
T4 construct: Expressed in H460 cells from pcDNA3; also called lane 4
T4 single chain: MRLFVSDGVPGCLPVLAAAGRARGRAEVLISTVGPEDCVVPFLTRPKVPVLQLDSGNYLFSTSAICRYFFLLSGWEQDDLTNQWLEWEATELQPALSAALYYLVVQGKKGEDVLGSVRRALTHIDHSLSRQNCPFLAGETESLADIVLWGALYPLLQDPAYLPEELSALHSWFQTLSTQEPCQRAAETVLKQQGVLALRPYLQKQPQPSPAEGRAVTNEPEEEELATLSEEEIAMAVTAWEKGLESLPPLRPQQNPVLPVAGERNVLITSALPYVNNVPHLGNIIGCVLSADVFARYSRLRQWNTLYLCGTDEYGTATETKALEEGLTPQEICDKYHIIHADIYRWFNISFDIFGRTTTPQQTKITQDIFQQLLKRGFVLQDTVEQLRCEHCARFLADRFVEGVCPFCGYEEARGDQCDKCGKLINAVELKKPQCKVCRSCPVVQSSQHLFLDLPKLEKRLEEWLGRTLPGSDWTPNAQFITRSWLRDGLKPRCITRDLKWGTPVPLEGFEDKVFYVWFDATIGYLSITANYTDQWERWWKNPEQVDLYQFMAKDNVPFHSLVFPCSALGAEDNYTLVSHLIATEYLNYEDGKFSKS

T5: MRS fragment 7 (660~860 aa) (human, UniProt P56192 660-860)
T5 construct: not shown: Myc linked to the N-terminus
T5 sequence: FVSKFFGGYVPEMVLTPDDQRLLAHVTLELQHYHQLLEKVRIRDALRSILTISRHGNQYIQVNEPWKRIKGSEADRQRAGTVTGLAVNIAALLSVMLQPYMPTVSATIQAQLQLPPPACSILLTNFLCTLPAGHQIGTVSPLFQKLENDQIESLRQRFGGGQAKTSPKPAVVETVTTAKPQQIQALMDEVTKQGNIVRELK

T6: AIMP3 (aminoacyl tRNA synthetase complex-interacting multifunctional protein 3) (Homo sapiens (Human), UniProt O43324 1-174, limits assumed)
T6 construct: How the AIMP3-alone protein for SPR and screening was made is not described; also called p18
T6 sequence: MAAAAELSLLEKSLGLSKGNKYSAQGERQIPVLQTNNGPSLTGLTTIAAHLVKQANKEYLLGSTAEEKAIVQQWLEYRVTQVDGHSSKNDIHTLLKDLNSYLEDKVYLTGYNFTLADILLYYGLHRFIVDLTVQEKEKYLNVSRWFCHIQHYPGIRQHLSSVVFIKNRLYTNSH


How the values were obtained:
[1] = target: T1, MRS fragment 3 (267~597 aa); assay: western blot of lysates of H460 cells transfected with Myc-tagged MRS fragments
Protocol: (§1) Six fragments of different lengths and positions were prepared based on the GST, catalytic domain, and tRNA binging domains of the MRS protein, and MRS protein and each of the MRS fragments were cloned into pcDNA3 vector (EV). At this time, since Myc protein is linked to the N-terminus of MRS protein, Myc protein was used as a control.
(§2) Then, 2 μg of the cloned vector DNA were transfected into H460 cells using Turbofect (Thermo) according to the manufacturer's instructions. After 24 hours, cells were harvested and subjected to western blot. 1E8 antibody and 8A12 antibody were diluted 1:5000 (0.2 μg/mL) as the primary antibody.

[2] = target: T2, MRS fragment 1 (1~266 aa); assay: as above
Protocol: as §1, §2

[3] = target: T3, MRS fragment 2 (267~417 aa); assay: as above
Protocol: as §1, §2

[4] = target: T4, MRS fragment 4 (1~597 aa); assay: as above
Protocol: as §1, §2

[5] = target: T5, MRS fragment 7 (660~860 aa); assay: western blot of lysate of transfected H460 cells
Protocol: as §2
Then, western blot was performed in the same manner as described above.

[6] = target: T6, AIMP3 (aminoacyl tRNA synthetase …); assay: SPR, CM5 chip coated with AIMP3, antibody flowed at 0.20 to 200 nM
Protocol: Surface plasmon resonance (SPR) experiments were carried out using 1E8 and 8A12 antibodies and MRS+AIMP3 protein obtained in Example 1.
CM5 chips were coated with MRS+AIMP3 or AIMP3 proteins and 1E8 or 8A12 antibodies were flowed at various concentrations to measure the degree of binding reaction with the proteins. Samples or buffers were injected for 8 minutes at a flow rate of 30 μl/min and washed for 20 minutes.

binding result [5] | binding result [6] | Binder | binding result [1] | binding result [2] | binding result [3] | binding result [4]
no binding (tested: 1:5000 (0.2 ug/mL)) | no binding (tested: 200 nM) | 1E8 antibody (1E8 IgG) (antibody, V domains shown, Mouse monoclonal from hybridoma clone 1E8; also called IE8; anti-MRS antibody (1E8)) VH: DVKLQESGPGLVNPSQSLSLTCTVTGYSITSDYAWNWIRQFPGNKLEWMGYISYSGRTSYKSSLKSRISITRDTSKNQFFLELNSVTTEDTATYYCARDYGNFVGYFDVWGAGTTVTVSS VL: DIVMTQSPSSLAVSVGEKVTMSCKSSQSLLYSSNQKNYLAWYQQKPGQSPKLLIYWASTRESGVPDRFTGSGSGTEFTLTISSVKAEDLAVYYCQQYYSYPTFGGGTKLEIKA | no binding (tested: 0.2 µg/mL (1:5000, from paragraph 148)) | no binding (tested: 0.2 µg/mL (1:5000, from paragraph 148)) | no binding (tested: 0.2 µg/mL (1:5000, from paragraph 148)) | no binding (tested: 0.2 µg/mL (1:5000, from paragraph 148))
no binding (tested: 1:5000 (0.2 ug/mL)) | no binding (tested: 200 nM) | 8A12 antibody (8A12 IgG) (antibody, V domains shown, Mouse monoclonal from hybridoma clone 8A12; also called 8Al2; anti-MRS antibody (8A12)) VH: DVKLQESGPGLVKPSQSLSLTCTVTGYSITSEYAWTWIRQFPGNKLEWMGYINYNGNTNLNPSLKSRISIIRDTSKNQFFLQLNSVTTEDTATYYCARSLWPRGWFAYWGQGTLVTVSA VL: DIQMTQSPSSMYASLGERVTITCKASQDINSYLSWFQQKPGKSPKTLMYRANRLVDGVPSRFSGSGSGQDYSLTISSLEYEDMGIYYCLQYDEFPRTFGGGTKLEIKA | no binding (tested: 0.2 µg/mL (1:5000, from paragraph 148)) | no binding (tested: 0.2 µg/mL (1:5000, from paragraph 148)) | no binding (tested: 0.2 µg/mL (1:5000, from paragraph 148)) | no binding (tested: 0.2 µg/mL (1:5000, from paragraph 148))
